Tests used:
[1] = target: T1, TNFR2 on human cells (Kym-1 cells; human CD3+ T cells) (human, UniProt P20333 23-461); experiment: cell-based or functional assay
T1 sequence (looked up): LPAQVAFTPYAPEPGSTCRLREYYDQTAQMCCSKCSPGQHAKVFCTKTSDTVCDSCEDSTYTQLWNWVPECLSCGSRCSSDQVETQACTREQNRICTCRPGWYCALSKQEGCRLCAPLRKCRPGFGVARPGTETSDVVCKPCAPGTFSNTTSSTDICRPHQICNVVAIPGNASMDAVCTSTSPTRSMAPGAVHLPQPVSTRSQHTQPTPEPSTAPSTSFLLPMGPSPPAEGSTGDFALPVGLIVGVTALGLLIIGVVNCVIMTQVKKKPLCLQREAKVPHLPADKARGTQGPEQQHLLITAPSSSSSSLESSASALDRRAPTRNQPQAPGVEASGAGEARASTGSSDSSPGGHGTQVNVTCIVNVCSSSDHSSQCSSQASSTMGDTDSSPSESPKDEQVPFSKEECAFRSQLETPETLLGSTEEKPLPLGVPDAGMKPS

[2] = target: T1, TNFR2 on human cells (Kym-1 cells; …); experiment: cell-based or functional assay; remark: listed apart in the source
[3] = target: T2, human TNFR2-Fc fusion protein (human, UniProt P20333 23-257); experiment: ELISA, huTNFR2-Fc coated at 1 µg/ml, bound protein detected with anti-TNF F6C5
T2 construct: also called huTNFR2-Fc; huTNFR2
T2 sequence (looked up): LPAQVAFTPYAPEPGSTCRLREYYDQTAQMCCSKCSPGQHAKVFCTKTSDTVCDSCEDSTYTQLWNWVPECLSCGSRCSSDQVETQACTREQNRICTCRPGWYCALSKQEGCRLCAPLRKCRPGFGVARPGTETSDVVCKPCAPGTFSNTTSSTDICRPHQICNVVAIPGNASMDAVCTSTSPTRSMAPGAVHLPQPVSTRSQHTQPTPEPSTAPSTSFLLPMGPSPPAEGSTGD
Procedure: ELISA plates (Greiner, Frickenhausen, Germany) were coated with huTNFR1-Fc, mTNFR1-Fc, huTNFR2-Fc or mTNFR2-Fc fusion proteins at 1 μg/ml in PBS and incubated at 4° C. overnight. Residual binding sites were blocked with 2% skim milk powder in PBS at RT for 2 hours. ScTNFR2 and the complexes were diluted in 2% skim milk powder in PBS and added at concentrations in the range of 10⁻³ to 10 nM and incubated for 1 hour at RT. Between each step, non-bound proteins were removed by washing 4 times with 0.005% Tween-20 in PBS.
Bound proteins were detected with mouse monoclonal antibodies to TNF (clone F6C5; 1 μg/ml; incubation for 1 hour at RT) and HRP-conjugated anti-mouse IgG antibodies (diluted 1:10000; incubation for 1 hour at RT), followed by incubation with tetramethylbenzidine (TMB) substrate solution. Reaction was stopped by addition of 1 M H₂SO₄ and the absorbance at 450 nm was determined with a Multiskan FC absorbance reader (Thermo Scientific, Karlsruhe, Germany) and data were analyzed using the software Microsoft Excel and GraphPad Prism 4 (GraphPad, La Jolla, Calif.) (FIG. 5). In Table 3, the calculated EC₅₀ values for the binding of TNF, scTNFR2 and the complexes to immobilized huTNFR2 and mTNFR2 based on the ELISA assay are summarized.

B1: EHD2-scTNFR2 (human) (ligand)
chain: DFTPPTVKILQSSCDGGGHFPPTIQLLCLVSGYTPGTINITWLEDGQVMDVDLSTASTTQEGELASTQSELTLSQKHWLSDRTYTCQVTYQGHTFEDSTKKCADSNGGGSGGGSGGGSGGGSGGGSGGSEFLASSRTPSDKPVAHVVANPQAEGQLQWLNRRANALLANGVELRDNQLVVPSEGLYLIYSQVLFKGQGCPSTHVLLTHTISRIAVSYQTKVNLLSAIKSPCQRETPEGAEAKPWYEPIYLGGVFQLEKGDRLSAEINRPDYLNFRESGQVYFGIIALGGGGSSSRTPSDKPVAHVVANPQAEGQLQWLNRRANALLANGVELRDNQLVVPSEGLYLIYSQVLFKGQGCPSTHVLLTHTISRIAVSYQTKVNLLSAIKSPCQRETPEGAEAKPWYEPIYLGGVFQLEKGDRLSAEINRPDYLNFRESGQVYFGIIALGGGGSSSRTPSDKPVAHVVANPQAEGQLQWLNRRANALLANGVELRDNQLVVPSEGLYLIYSQVLFKGQGCPSTHVLLTHTISRIAVSYQTKVNLLSAIKSPCQRETPEGAEAKPWYEPIYLGGVFQLEKGDRLSAEINRPDYLNFRESGQVYFGIIAL
notes: Hexavalent dimer of two subunits; also called hexavalent EHD2-scTNFR2
B1 was tested, and the “EC50 of Kym-1 cell viability (crystal violet assay after 16 h)” value [1] was 37 µM, the “EC50 values (nM) of cell death induction using Kym-1 cells” value [2] was 0.0126 nM and the EC50 [3] was 0.508 nM.

Source: patent publication US20210395323A1 (UNIVERSIT T STUTTGART, published 2021)
